# Assay results taken from the nanobody polyreactivity screen of Harvey et al. (2022).
# Assay: yeast display, Sf9 membrane polyspecificity reagent, FACS + sequencing; frameworks hold sequencing errors
# Summary of the method: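 Galactose induction of a Saccharomyces cerevisiae BJ5465 synthetic nanobody display library ran 36–48 hours. The cells were then stained for 1 hour at 4 °C with 10% biotinylated, detergent-solubilized Sf9 membrane reagent, pulled down on streptavidin microbeads and FACS-sorted into low and high (top ~1%) gates on expression and reagent-binding fluorescence. Labels for polyreactivity follow the gate of origin.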
row,Sequence,polyreactivity (PSR sort gate)
1,QVQLVESGGGLVQAGGSLRISCAASGLILIVYAMGWYRQAPGKERELVAAISSGGITYYADSVKGRFTISRDNAKNTVYLQMNSLKPEDTAVYYCAAESAYWWGDYYYWGQGTQVTVSS,high polyreactivity
2,QVQLVESGGGLVQAGGSLRLSCAASGSIFVGYAMGWYRQAPGKERELVAAISSNGGSTYYADSVKGRFTISRDNAKNTVYLQMNSLKPEDTAVYYCAKDYTYSFGRSLDYWGQGTQVTVSS,low polyreactivity
3,QVQLVESGGGLVQAGGSLRLSCAASGGIFGQYTMGWYRQAPGKERELVAGISKRGTLTRYADSVKGRFTISRDNAKNTVYLQMNSLKPEYSAVYYCNADYVGFFWEYDYWGQGTQVTVSS,high polyreactivity
4,QVQLVQSGGGLVQAGGSLRLSCAASGRTIYSKAMGWYRQAPGKERELVAAITSTDDSTYYADSVKGRFTISRDNAKNTVYLQMNSLKPEDTAVYYCNTDGLIAIRGLWWVEYDYWGQGTQVTVSS,low polyreactivity
5,QVQLVESGGGLVQAGGSLRLSCAASGRTFGRYAMGWYRQAPGKERELVAAITRSGSSTYYADSVKGRFTISRDNAKNTVYLQMNSLKPEDTAVYYCAALYGPFYSTGEYWGQGTQVTVSS,high polyreactivity
6,QVQLVESGGGLVQAGGSLRLSCAASGRTFGRYAKGWYRQAPGKERELVAAISWSGGSTYYADSVKGRFTISRDNAKNTVYLQMNSLKPEDTAVYYCAAVTTDGVYAFDYWGQGTQVTVSS,low polyreactivity
7,QVQLVESGGGLVQAGGSLRLSCAASGRTFLRYTMGWYRQAPGKERELVASITRGGSTYYADSVKGRFTISRDNAKNTVYLQMNSLKPEDTAVYYCAAGKALLSRYDYWGQGTQVTVSS,high polyreactivity
8,HVQLVESGGGLVQAGGSLRISCAASGFTFRYYAMGWYRQAAGKEMELVAAITSSGGRTYYADSVKGRFTISRDNAKNTVYLQMNSLKPEDTAVYYCNAAYGYVSRVYYLIEHDYWGHGTQVTVSS,high polyreactivity
9,QVQLVESGGGLVQAGGSLRLSCAASGFTFYSYAMGWYRQAPGKEREFVAAGSTYYADSVKGRFTISRDNAKNTVYLQMNSLKPEDTAVYYCAADPWIYVQSYGYWGQGTQVTVSS,low polyreactivity
10,QVQLVESGGGLVQAGGSLRLSCAASGLILYHYAMGWYREAPGKERELVAAISSGGITHYADSVKGRFTISRDNAKNTVYLQMNILKPEDNAVYYCNAVSYYWHDFDYWGQGTQVTVSS,high polyreactivity
11,QVKLVESGGGLVQAGGSLRLSCAASGFIFPDYAMGWYRQAPGKERELVAAITSSGGRTYYADSVKGRFTISRDNAKNTVYLQMNSLKPEDTAVYYCAARTISPRGYGSDYWGQGTQVTVSS,high polyreactivity
12,QVQLVESGGGLVQAGGSLRLSCAASGSIFSPNDMGWYRQAPGKERELVAAITSAGSTYYADSVKGRFTISRDNAKNTVYLQMNSLKPEDTAVYYCSASYISVTDYAYFPLWYGYWGQGTQVTVSS,low polyreactivity
13,QVQLVESGGGLVQAGGSLRLSCAASGRTFDWYVMGWYRQAPGKERELVASIRGTGSTYYADSVKGRFTISRDNAKNTVYLQMNSLKPEDTAVYYCAARPGYLYSKYNYWGQGTQVTVSS,high polyreactivity
14,QVQLVESGGGLVQAGGSLRLSCAASGSTFYSYAMGWYRQAPGKERELVAAIDWSGDNTNYADSVKGRFTISRDNAKNTVYLQMNSLKPEDTAVYYCAADWYYTRRRYNYWGQGTQVTVSS,low polyreactivity
15,QVQLVESWGALVQAGGSLRLSCAASGSTFGYYAMGWYRQAPGKDRELVAAITRSGGSTSYADSVTGRFTISRDNAKNTVYLQMNSLKPEATAVYYCAARFYRPYYARQGYNYWGQGTKVTVSS,high polyreactivity
16,QVQLVESGGGLVQAGGSHRLSCAASGIIYYYNTMGWYRQAPGKEREFVAAISNSGGRTYYADSVKGRFTISRDNAKNTVYLQMNSLKPEDTAVYYCAARYVLFSNRFDYWGQGTQVTVSS,high polyreactivity
17,QVQLVESGGGLVQAGGSLRLSCAASGRIFKYYAMGWYRQAPGKERELVAAISWTGVSTYYADSVKGRFTISRDNAKNTVYLQMNSLKPEDTAVYYCNAQSYRYPKDDYWGQGTQVTVSS,high polyreactivity
18,QVQLVESGGGLVQAGGSLRLSCAASGFTFLIYAMGWYIQAPGKERELVADISYNDDITYYADSVKGRFTISRDNAKNTVYLQMNSLKPEDTAVYYCAADYVNPELDYWGQGTQVTVSS,low polyreactivity
19,QVQLVESGGGLVQAGGSLRLSCAASGSIFDWYAMGWYRQAPGKERELVAAIDSSGSSTYYADSVKGRFTISRDNAKNTVYLQMNSLKPEDNAVYYCAADSDWIRDWFGSLYGSDYWGQGSQVTVSS,low polyreactivity
20,QVQLVESGGGLVQAGGSLRLSCAASGFISTINVMGWYRQAPGKEREMVAAMTYIDGSTFYADSVKGRFTISRDNAKNTVYLQMNSLKPEDTAVYYCAADLYQWGAVFLYVRSTGLDYWGQGTQVTVSS,low polyreactivity
21,QVQLVESGGGLVQAGGSLSLSCAASGITFVFYTMGWYRQAPGKERELVAAISRSGASTYYADSVKGRFTISRDNAKNTVYLQMNSLKPQDTAVDYCAADRGYRFRMDYWGQGTQVTVSS,high polyreactivity

row,Sequence,polyreactivity (PSR sort gate)
1,QVQLVESGGGLVQAGGSLRLSCAASGSTFATYAMGWYRQAPGKERELVAVITRGGRTYYADSVKGRFTISRDNAKNTVYLQMNSLKPEDTAVYYCAAKAYTYYARIGFDYCGQGTQVTVSS,high polyreactivity
2,QVQLVESGGGLFQAGGSLRLSCAASGRIFYSNAMGWYRQAPGKERELVASISPNSGPTYYADSVKGRFTISRDNAKNTVYLQMNSLKPEVTAVYYCAARGGYYQDGLVTGVAEYGYCGQGTQVTVSS,low polyreactivity
3,QVQLVESGGGLVQAGGSLRLSCAASGSIFRRYAKGWYRQAPGKERELVAAITNRGGTTYYADSVKGRFTISRDNAKNSVYLQMNSLKPEDTAVYYCNAYYRTKGGFRFGYWGQVTQVTVSS,high polyreactivity
4,QVQLVESGGGLVQAGGSLRLSCAASGGTFYLNAMGWYRQAPGKERELVAAISKRSSTTYYADSVKGRFTISRDNAKNTVYLQMNSLKPEDTAVYYCAAEYFDWWVTYDYWGQGTQVTVSS,high polyreactivity
5,QVQHVESGGDLVQAGGSLRLSCAASGSTSFHNAMGWDIQAPGKEREFVAAMSGSGDRTNYADSVKGRFTISRDNAKNTVYLQMNSLKPEDTAVYYCAARGQPGRRTSSGFFSGGYWGQGTQVTVSS,high polyreactivity
6,QVQIVESGGGLVQAGGSLSLSCASSGSTIGDYAMGWYRQAPGKERELVAAINSGDSKNYADSVKGRFTISRDNAKNTVYLQMNSLKPEDTAVYYCAAEPLSISYVYYKYKYEYWGQGTQVTVSS,low polyreactivity
7,QVQLVESGGCLVQAGGSLRLSCAASGRTFRYYAMGWYRQAPGTERELVATITGSGGSTYYADSVKGRFTISRDNAKNTVYLQMTSLKPEDTAVYYCNARKVRYPYRWYDYWGQGTQVTVSS,high polyreactivity
8,QVQLVESGGGLVQAGGSLRLSCAASGIIFTRYAMGWYRQAPGKERELVAAITRNGVSTYYADSVKGRFTISRDNAKNSVYLQMNSLKPEDTAVYYCNTYVLRRYAYGYWGQGTQVTVSS,high polyreactivity
9,QVQLVESGGGLGQAGGSLRVSCAASGGTLYYYAMGWYRQARGKERELVADITNSGSTNYADAVKGRFTISRDNAKNTVYLQMNSLKPEDTAVYSCAAAFSRRYDWGQGTQVTVSS,high polyreactivity
10,QGQLVESGGGLVQAGGSLRLSCAASGITVGVYARGRYRQEPGKEREFVADIDRTGGSTYAVSVKGRFTISRDIAKNTVYLQMNSLKPEDTAVYYCAAGWGFRFYYWYWGQGTQVTVSS,high polyreactivity
11,QVQLVESGGGLVQAGGSLRLTCAASGRIIIGYVMGWYRQAPGKERELVATISYSGGSTYADSVKGRFTISRDNAKNTVYLQMNSLKPEDTAVYYCAARPYYRYYRYPYGYWGQGTQVTVSS,high polyreactivity
12,QVQLVESGGGLVQAGGSLLLSCAASGITFFTYAKGWYRQAPGKERELDAAISGSGGSTYYADSVKGRFTISRDNAKKTVYLQMNSLKPEDTAVYYCAAERENGDHYRYYYWGQGTQVTVSS,low polyreactivity
13,QVQLVESGGGLVQAGGSLRLSCAASGSTYFHYAMGWYRQAPGKERELVAAISKSVGTTYYADSVKGRFTISRDNAKNTVYLQMNSLKPEDPAVYYCAADSVITWWAYDYWGQGTQVTVSS,high polyreactivity
14,QVQLVESGGGLFQAGGSLRLSCAASGIIFRYYAMGWSRQAPGKEREFVASINFSGSSTYYADSVKGRFTISRDKAKNTVYLQMNSLKPEDTAVYYCAAGRRWLYDYWGQGTQVTVSS,high polyreactivity
15,QVQLVESGGGLVQAGGSLRLSCAASGSIFAINVMGWYRQAPGKEREFVAAISVRSGSTYYADSVKGRFTISRDNAKNTVYLQMNSLKPEDTAVYYCARDSYYIGRWLYYWGQGTQVTVSS,high polyreactivity
16,QVQLVESGGGLVQAGGSLRLSCAASGRIFRLYAMGWSRQAPGKERELVAAISSSGGDTYYADSVKGRFTISRDNAKNTVYLQMNSLKPEDTAVYYCNARKRYANVHYNYWGQGTQVTVSS,high polyreactivity
17,QVQLVESGGGLVQAGGSLRLSCAASGIIFFFYDMGWYRQSPGKERELVAAISDDGVSTDYADSVKGRFTISRDNAKNTVYLQMNSLKPEDTAVYYCAAKTERVYPWFSFGYWVQGTQVTVSS,low polyreactivity
18,QVQLVESGGGLVQAGGSLRLSCAASGSTFGLYAMGWYRQAPGKERELVAAITSTGGSTYYADSVKGRFTISRDNAKNTVYLQMNSLKPEDTAVYYCARDYRSGYDYWGQGTQVTVSS,low polyreactivity
19,QVQLVESGGGLDQEGGSLRLSCAASGSTFAVHVMGWYRHAPGKERELVATITYRDGRTYYADSVKGRFTISRDNANNTVYLQMNSLKPEDTAVYYCAADWYTTYDYWGQGTQVTVSS,low polyreactivity
20,QVQLVESGGGLVQAGGSLRLSCAASGRTQTRYTMGWYRQAPGKERELVATISRSGGNTHYADSLKGRFTISRDNAKNTVYLQMNSLKPEDTEVYYCNAVRYAIYGYDYWGQGTQVTVSS,high polyreactivity
